Source: the RNAGym collection of RNA variant scans (doi:10.7554/elife.90254)

B1: LINE1-mini (parent)
chain: GGCAGAGCUCAACACAGCGUGGCAAAGUGGCUGUGGCUAGACUGCC

Variants of: B1
Test: self-cleavage, relative activity (ratio to wild type); higher = more cleavage; in vitro, sequencing; the parent is a self-cleaving ribozyme

Point of comparison: GACAGAGCUCAACACAGCGUGGCAAAGUGGGUGUGGCUAGACUGCC, self-cleavage 0.14. Against it:
- GACAGAGCUCAACACAGAGUGGCAAAGUGGCUGUGGCUAGACUGCC — higher, 0.16
- GACAGAGCUCAACACAGUGUGGCAAAGUGGCUGUGGCUAGACUGCC — higher, 0.46
- GACAGAGCUCAACACAGGGUGGCAAAGUGGCUGUGGCUAGACUGCC — higher, 0.46
- GCCAGAGCUCAGCACAGCGUGGCAAAGUGGCUGUGGCUAGACUGCC — lower, 0.07
- GCCAGAGCUCAUCACAGCGUGGCAAAGUGGCUGUGGCUAGACUGCC — lower, 0.12
- GCCAGAGCUCACCACAGCGUGGCAAAGUGGCUGUGGCUAGACUGCC — lower, 0.02
- GACAGAGCUCAACACAGCGCGGCAAAGUGGCUGUGGCUAGACUGCC — higher, 0.48
- GACAGAGCUCAACACAGCGAGGCAAAGUGGCUGUGGCUAGACUGCC — higher, 0.88
- GACAGAGCUCAACACAGCGGGGCAAAGUGGCUGUGGCUAGACUGCC — higher, 0.36
- GACAGAGCUCAACACAGCGUGGCAAAGUGGCUGUGGCUAGACUUCC — higher, 0.75
- GACAGAGCUCAACACAGCGUGGCAAAGUGGCUGUGGCUAGACUCCC — higher, 0.56
- GACAGAGCUCAACACAGCGUGGCAAAGUGGCUGUGGCUAGACUACC — higher, 0.49
- GCCAGAGCUCAACACAGCGUGGCGAAGUGGCUGUGGCUAGACUGCC — lower, 0.09
- GCCAGAGCUCAACACAGCGUGGCUAAGUGGCUGUGGCUAGACUGCC — higher, 0.15
- GCCAGAGCUCAACACAGCGUGGCCAAGUGGCUGUGGCUAGACUGCC — lower, 0.06
- GCCAGAGCUCAACUCAGCGUGGCAAAGUGGCUGUGGCUAGACUGCC — lower, 0.08
- GCCAGAGCUCAACGCAGCGUGGCAAAGUGGCUGUGGCUAGACUGCC — lower, 0.03
- GCCAGAGCUCAACCCAGCGUGGCAAAGUGGCUGUGGCUAGACUGCC — lower, 0.06
- GACAGAGCUUAACACAGCGUGGCAAAGUGGCUGUGGCUAGACUGCC — higher, 0.41
- GACAGAGCUCAACACACCGUGGCAAAGUGGCUGUGGCUAGACUGCC — higher, 0.32
- GACAGAGCUCAACACAUCGUGGCAAAGUGGCUGUGGCUAGACUGCC — higher, 0.19
- GACAGAGCUCAACACAACGUGGCAAAGUGGCUGUGGCUAGACUGCC — higher, 0.2
- GCCAGAGCUCAACACAGCGUGGCAAAGUGGCUGUGGCUAGACUGCC — lower, 0.13
- GACAGAGCUCAACACAGCGUGGCAAAGUGGCCGUGGCUAGACUGCC — higher, 0.24
- GACAGAGCUCAACACAGCGUGGCAAAGUGGCGGUGGCUAGACUGCC — higher, 0.2
- GACAGAGCUCAACACAGCGUGGCAAAGUGGCAGUGGCUAGACUGCC — the same, 0.14
- GACAGAGCUCAACACAGCGUGGCAAAGUGGCUGUGGCUAGACUGCU — higher, 0.87
- GACAGAGCUCAACACAGCGUGGCAAAGUGGCUGUGGCUAGACUGCG — higher, 0.96
- GACAGAGCUCAACACAGCGUGGCAAAGUGGCUGUGGCUAGACUGCA — higher, 1.23
- GACAGAGCUCAACACAGCGUGGCAAAGUGGCUGUGGCUAGACCGCC — lower, 0.13
- GACAGAGCUCAACACAGCGUGGCAAAGUGGCUGUGGCUAGACAGCC — the same, 0.14
- GACAGAGCUCAACACAGCGUGGCAAAGUGGCUGUGGCUAGACGGCC — the same, 0.14
- GACAGAGCUCAACACAGCGUGGCAAAGUGGCUCUGGCUAGACUGCC — lower, 0.05
- GACAGAGCUCAACACAGCGUGGCAAAGUGGCUUUGGCUAGACUGCC — lower, 0.13
- GACAGAGCUCAACACAGCGUGGCAAAGUGGCUAUGGCUAGACUGCC — higher, 0.2
- GACAGAUCUCAACACAGCGUGGCAAAGUGGCUGUGGCUAGACUGCC — higher, 0.17
- GACAGACCUCAACACAGCGUGGCAAAGUGGCUGUGGCUAGACUGCC — higher, 0.39
- GACAGAACUCAACACAGCGUGGCAAAGUGGCUGUGGCUAGACUGCC — higher, 0.86
- GACAGAGCUCAACAUAGCGUGGCAAAGUGGCUGUGGCUAGACUGCC — higher, 0.5
- GACAGAGCUCAACAAAGCGUGGCAAAGUGGCUGUGGCUAGACUGCC — higher, 0.31
- GACAGAGCUCAACAGAGCGUGGCAAAGUGGCUGUGGCUAGACUGCC — lower, 0.05
- GACAGAGCUCAACACAGCGUGGCAAAGGGGCUGUGGCUAGACUGCC — higher, 0.48
- GACAGAGCUCAACACAGCGUGGCAAAGCGGCUGUGGCUAGACUGCC — higher, 0.64
- GACAGAGCUCAACACAGCGUGGCAAAGAGGCUGUGGCUAGACUGCC — higher, 0.32
- GACAGAGCUCAACACAGCGUGGCAAAGUGGUUGUGGCUAGACUGCC — higher, 0.25
- GACAGAGCUCAACACAGCGUGGCAAAGUGGAUGUGGCUAGACUGCC — higher, 0.23
- GACAGAGCUCAACACAGCGUCGCAAAGUGGCUGUGGCUAGACUGCC — higher, 0.46
- GACAGAGCUCAACACAGCGUUGCAAAGUGGCUGUGGCUAGACUGCC — higher, 0.89
- GACAGAGCUCAACACAGCGUAGCAAAGUGGCUGUGGCUAGACUGCC — higher, 2.98
- GACAGAGCUCAACACAGCGUGGCAAAGUGGCUGUGGCUAGACUGGC — higher, 0.75
- GACAGAGCUCAACACAGCGUGGCAAAGUGGCUGUGGCUAGACUGAC — higher, 1.08
- GACAGAGCUCAACACAGCAUGGCAAAGUGGCUGUGGCUAGACUGCC — higher, 1.72
- GACAGAGCUCAACACAGCUUGGCAAAGUGGCUGUGGCUAGACUGCC — higher, 0.72
- GACAGAGCUCAACACAGCCUGGCAAAGUGGCUGUGGCUAGACUGCC — higher, 0.19
- GCCAGAGCUCAACACCGCGUGGCAAAGUGGCUGUGGCUAGACUGCC — lower, 0.02
- GCCAGAGCUCAACACGGCGUGGCAAAGUGGCUGUGGCUAGACUGCC — lower, 0.09
- GCCAGAGCUCAACACUGCGUGGCAAAGUGGCUGUGGCUAGACUGCC — lower, 0.04
- GACAGAGCUCAACACAGCGUGGCAAAGUGGCUGUUGCUAGACUGCC — higher, 0.41
- GACAGAGCUCAACACAGCGUGGCAAAGUGGCUGUAGCUAGACUGCC — higher, 0.26
- GACAGAGCUCAACACAGCGUGGCAAAGUGGCUGUCGCUAGACUGCC — higher, 0.34
- GACAGAGCUCAACACAGCGUGGCAAAAUGGCUGUGGCUAGACUGCC — higher, 0.66
- GACAGAGCUCAACACAGCGUGGCAAAUUGGCUGUGGCUAGACUGCC — higher, 0.75
- GACAGAGCUCAACACAGCGUGGCAAACUGGCUGUGGCUAGACUGCC — higher, 0.72
- GACAGAGCUCAACACAGCGUGGCAAAGUGGCUGUGACUAGACUGCC — higher, 0.69
- GACAGAGCUCAACACAGCGUGGCAAAGUGGCUGUGCCUAGACUGCC — higher, 0.28
- GACAGAGCUCAACACAGCGUGGCAAAGUGGCUGUGUCUAGACUGCC — higher, 0.19
- GACAGAGCUCAACACAGCGUGGGAAAGUGGCUGUGGCUAGACUGCC — higher, 0.4
- GACAGAGCUCAACACAGCGUGGAAAAGUGGCUGUGGCUAGACUGCC — higher, 1.04
- GACAGAGCUCAACACAGCGUGGUAAAGUGGCUGUGGCUAGACUGCC — higher, 2.33
- GACAGAGCUCAACACAGCGUGGCAAAGUGGCUGUGGCUAGAUUGCC — higher, 0.44
- GACAGAGCUCAACACAGCGUGGCAAAGUGGCUGUGGCUAGAGUGCC — higher, 0.34
- GACAGAGCUCAACACAGCGUGGCAAAGUGGCUGUGGCUAGAAUGCC — higher, 0.36
- GACAGAGCUCAACACAGCGUGGCAAAGUGGCUGUGGCCAGACUGCC — higher, 0.7
- GACAGAGCUCAACACAGCGUGGCAAAGUGGCUGUGGCAAGACUGCC — higher, 0.71
- GACAGAGCUCAACACAGCGUGGCAAAGUGGCUGUGGCGAGACUGCC — lower, 0.05
- GACAGAGCGCAACACAGCGUGGCAAAGUGGCUGUGGCUAGACUGCC — higher, 0.25
- GACAGAGCCCAACACAGCGUGGCAAAGUGGCUGUGGCUAGACUGCC — lower, 0.08
- GACAGAGCACAACACAGCGUGGCAAAGUGGCUGUGGCUAGACUGCC — higher, 0.31
- GACAGAGCUCAACACAGCGUGGCAAAGUGGCUGGGGCUAGACUGCC — lower, 0.13
- GACAGAGCUCAACACAGCGUGGCAAAGUGGCUGAGGCUAGACUGCC — higher, 0.18
- GACAGAGCUCAACACAGCGUGGCAAAGUGGCUGCGGCUAGACUGCC — higher, 0.19
- GACAGAGCUCAACACAGCGUGCCAAAGUGGCUGUGGCUAGACUGCC — higher, 0.29
- GACAGAGCUCAACACAGCGUGUCAAAGUGGCUGUGGCUAGACUGCC — higher, 0.89
- GACAGAGCUCAACACAGCGUGACAAAGUGGCUGUGGCUAGACUGCC — higher, 0.8
- GACAGAGCUCAAAACAGCGUGGCAAAGUGGCUGUGGCUAGACUGCC — higher, 0.36
- GACAGAGCUCAAUACAGCGUGGCAAAGUGGCUGUGGCUAGACUGCC — higher, 0.32
- GACAGAGCUCAAGACAGCGUGGCAAAGUGGCUGUGGCUAGACUGCC — higher, 0.45
- GACACAGCUCAACACAGCGUGGCAAAGUGGCUGUGGCUAGACUGCC — lower, 0.06
- GACAAAGCUCAACACAGCGUGGCAAAGUGGCUGUGGCUAGACUGCC — higher, 0.53
- GACAUAGCUCAACACAGCGUGGCAAAGUGGCUGUGGCUAGACUGCC — higher, 0.27
- GCCAGAGCUCCACACAGCGUGGCAAAGUGGCUGUGGCUAGACUGCC — lower, 0.02
- GCCAGAGCUCUACACAGCGUGGCAAAGUGGCUGUGGCUAGACUGCC — lower, 0.03
- GCCAGAGCUCGACACAGCGUGGCAAAGUGGCUGUGGCUAGACUGCC — lower, 0.02
- GACAGAGCUCAACACAGCGUGGCAAAGUGUCUGUGGCUAGACUGCC — higher, 1.4
- GACAGAGCUCAACACAGCGUGGCAAAGUGACUGUGGCUAGACUGCC — higher, 1.67
- GACAGAGCUCAACACAGCGUGGCAAAGUGCCUGUGGCUAGACUGCC — higher, 0.51
- GACAGAGCUCAACACAGCGUGGCAAAGUGGCUGUGGCUAAACUGCC — higher, 0.35
- GACAGAGCUCAACACAGCGUGGCAAAGUGGCUGUGGCUAUACUGCC — higher, 0.29
- GACAGAGCUCAACACAGCGUGGCAAAGUGGCUGUGGCUACACUGCC — lower, 0.12
- GCCGGAGCUCAACACAGCGUGGCAAAGUGGCUGUGGCUAGACUGCC — higher, 0.16
- GCCUGAGCUCAACACAGCGUGGCAAAGUGGCUGUGGCUAGACUGCC — lower, 0.08
- GCCCGAGCUCAACACAGCGUGGCAAAGUGGCUGUGGCUAGACUGCC — lower, 0.11
- GACAGAGCUCAACACAGCGUGGCAAAGUAGCUGUGGCUAGACUGCC — higher, 0.61
- GACAGAGCUCAACACAGCGUGGCAAAGUCGCUGUGGCUAGACUGCC — higher, 0.65
- GACAGAGCUCAACACAGCGUGGCAAAGUUGCUGUGGCUAGACUGCC — higher, 0.9
- GCCAGCGCUCAACACAGCGUGGCAAAGUGGCUGUGGCUAGACUGCC — lower, 0.12
- GCCAGUGCUCAACACAGCGUGGCAAAGUGGCUGUGGCUAGACUGCC — the same, 0.14
- GCCAGGGCUCAACACAGCGUGGCAAAGUGGCUGUGGCUAGACUGCC — lower, 0.07
- GACAGAGCUCAACACAGCGUGGCAAAGUGGCUGUGGGUAGACUGCC — lower, 0.13
- GACAGAGCUCAACACAGCGUGGCAAAGUGGCUGUGGUUAGACUGCC — higher, 0.28
- GACAGAGCUCAACACAGCGUGGCAAAGUGGCUGUGGAUAGACUGCC — higher, 0.35
